Source: article PMC5035970

What was measured:
[1] = tested on: RSV Gag∆PR (Rous sarcoma virus, Prague C strain); test: fluorescence anisotropy
[2] = tested on: R155H (Rous sarcoma virus (Prague C) / HIV-1 chimera); test: FA salt titration
HIV-1 Gag∆p6 (HIV-1) [3] = test: FA salt titration
[4] = tested on: H132R (HIV-1 / Rous sarcoma virus chimera); test: FA salt titration
[5] = tested on: RSV Gag∆PR (Rous sarcoma virus, Prague C strain); test: FA salt titration
HIV-1 Gag∆p6 (HIV-1) [6] = test: fluorescence anisotropy
[7] = tested on: H132R (HIV-1 / Rous sarcoma virus chimera); test: fluorescence anisotropy
[8] = tested on: RSV CANC (Rous sarcoma virus, Prague C strain); test: FA salt titration

Question: With HIV-1 TARpolyA as the substance, how does the Kd [1] read?
Answer: 0.018 µM

Question: And the Kd [2]?
Answer: 2600 mM

Question: What about the Kd (HIV-1 Gag∆p6 (HIV-1) [3]) of the same substance?
Answer: 560 mM

Question: What about the Kd [4] of the same substance?
Answer: 290 mM

Question: And the Kd [5]?
Answer: 40 mM

Question: Which Kd [1] does the source give for HIV-1 Ψ-WT here?
Answer: 0.014 µM

Question: And the Kd [2]?
Answer: 0.031 mM

Question: What about the Kd (HIV-1 Gag∆p6 (HIV-1) [3]) of the same substance?
Answer: 0.036 mM

Question: What about the Kd [4] of the same substance?
Answer: 19 mM

Question: What about the Kd [5] of the same substance?
Answer: 32 mM

Question: Which Kd [5] does the source give for RSV MΨ A197G here?
Answer: 0.047 mM

Question: Which Kd [5] does the source give for RSV MΨ GG to CC here?
Answer: 0.49 mM

Question: How did the Kd [5] turn out when RSV MΨ UGCG to GAGA was run?
Answer: 0.012 mM

Question: With RSV MΨ WT as the substance, how does the Kd (HIV-1 Gag∆p6 (HIV-1) [6]) read?
Answer: 0.014 µM

Question: And the Kd [7]?
Answer: 0.013 µM

Question: And the Kd [8]?
Answer: 0.013 mM

Question: And the Kd [2]?
Answer: 0.067 mM

Question: And the Kd (HIV-1 Gag∆p6 (HIV-1) [3])?
Answer: 0.055 mM

Question: And the Kd [4]?
Answer: 0.072 mM

Question: And the Kd [5]?
Answer: 0.071 mM
